Five molecules from article PMC9950535, “Divalent metal cofactors differentially modulate RadA-mediated strand invasion and exchange in Saccharolobus solfataricus” (Bioscience Reports, 2023) can be followed below.

For series [1], the target named is T1, SsoRadA (Saccharolobus solfataricus, UniProt Q55075).
T1 construct: gene radA
T1 sequence (Q55075 1-324): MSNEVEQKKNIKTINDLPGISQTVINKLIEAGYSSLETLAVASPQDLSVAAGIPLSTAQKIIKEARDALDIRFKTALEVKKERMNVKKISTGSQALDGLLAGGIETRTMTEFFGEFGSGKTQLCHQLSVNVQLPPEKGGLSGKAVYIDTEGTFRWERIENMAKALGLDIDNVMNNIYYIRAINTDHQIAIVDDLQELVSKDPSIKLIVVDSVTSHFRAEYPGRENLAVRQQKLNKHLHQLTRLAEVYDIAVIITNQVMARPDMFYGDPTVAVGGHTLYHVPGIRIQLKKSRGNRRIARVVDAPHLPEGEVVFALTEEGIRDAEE
Put plainly: filter binding.

In series [2] the target is T1, SsoRadA. In words: TLC ATPase assay, [γ-32P]ATP. The class given is biochemical.
The target in series [3] is T2, SsoRadA (Saccharolobus solfataricus, UniProt Q55075 1-324).
T2 sequence: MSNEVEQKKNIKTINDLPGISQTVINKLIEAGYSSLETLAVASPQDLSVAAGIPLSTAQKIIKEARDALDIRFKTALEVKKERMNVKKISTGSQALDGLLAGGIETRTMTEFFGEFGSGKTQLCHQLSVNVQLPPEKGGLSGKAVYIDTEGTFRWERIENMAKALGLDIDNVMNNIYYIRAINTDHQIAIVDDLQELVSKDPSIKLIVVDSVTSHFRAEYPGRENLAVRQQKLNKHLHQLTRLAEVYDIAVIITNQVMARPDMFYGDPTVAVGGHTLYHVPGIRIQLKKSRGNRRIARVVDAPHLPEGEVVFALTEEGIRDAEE
In words: filter binding; 10 mM Mn2+, 3 uM ATP; Filter binding: 40 mM HEPES pH 7.0, 50 mM KCl, 10 mM CaCl2, MgCl2 or MnCl2, 20 pmol SsoRadA, 3 uM ATP where included, ssDNA varied; temperature not stated. The note with it: protein: recombinant; single strand.

Series [4] has as its target T2, SsoRadA. Put plainly: filter binding; 10 mM Mn2+, no ATP; Filter binding: 40 mM HEPES pH 7.0, 50 mM KCl, 10 mM CaCl2, MgCl2 or MnCl2, 20 pmol SsoRadA, 3 uM ATP where included, ssDNA varied; temperature not stated. The conditions noted are these: protein: recombinant; single strand.
Series [5] concerns the target T2, SsoRadA. Put plainly: filter binding; 10 mM Mg2+, 3 uM ATP; Filter binding: 40 mM HEPES pH 7.0, 50 mM KCl, 10 mM CaCl2, MgCl2 or MnCl2, 20 pmol SsoRadA, 3 uM ATP where included, ssDNA varied; temperature not stated. The note with it: protein: recombinant; single strand.
Substrate in series [6]: Nc1ncnc2c1ncn2[C@@H]1O[C@H](COP(=O)(O)OP(=O)(O)OP(=O)(O)O)[C@@H](O)[C@H]1O
Put plainly: TLC ATPase assay, initial rates. It counts as biochemical, Saccharolobus solfataricus. The conditions noted are these: 10 mM Mg2+, 20 μM (nucleotides) φX174 ssDNA, 0.5 μM SsoRadA, 25 mM Tris acetate pH 7.5, 65°C.

A word on the Kd: it is the free concentration of one partner at which half of the binding sites on the other are occupied at equilibrium, for simple one-to-one binding. Consider `Nc1ncnc2c1ncn2[C@@H]1O[C@H](COP(=O)(O)OP(=O)(O)OP(=O)(O)O)[C@@H](O)[C@H]1O` [ATP], for which, on SsoRadA [1], the Kd is 1130 ± 440 nM.
One may read the IC50 as the concentration that inhibits the measured activity by half. Molecule `Nc1ncnc2c1ncn2[C@@H]1O[C@H](CO[P@](=O)(O)O[P@](=O)(O)O[P@@](=O)(O)S)[C@@H](O)[C@H]1O` [ATPγS] had an IC50 on SsoRadA [2] of 87800 nM.
Same read-out and setting: the value for `Nc1ncnc2c1ncn2[C@@H]1O[C@H](COP(=O)(O)OP(=O)(O)O)[C@@H](O)[C@H]1O` [ADP] was 112000 nM.

B1: 63-mer oligonucleotide (ssDNA)
DNA: ACAGCACCAATGAAATCTATTAAGCTCCTCATCGTCCGCAAAAATATCGTCACCTCAAAAGGA
Consider B1, for which the Kd in the series with SsoRadA [3] amounted to 23.1 ± 14.4 nM; with SsoRadA [4], 82.4 ± 13.2 nM; in the series with SsoRadA [5] it was 21.3 ± 1.6 nM.

B2: SsoRadA (Saccharolobus solfataricus P2) (protein)
chain: MSNEVEQKKNIKTINDLPGISQTVINKLIEAGYSSLETLAVASPQDLSVAAGIPLSTAQKIIKEARDALDIRFKTALEVKKERMNVKKISTGSQALDGLLAGGIETRTMTEFFGEFGSGKTQLCHQLSVNVQLPPEKGGLSGKAVYIDTEGTFRWERIENMAKALGLDIDNVMNNIYYIRAINTDHQIAIVDDLQELVSKDPSIKLIVVDSVTSHFRAEYPGRENLAVRQQKLNKHLHQLTRLAEVYDIAVIITNQVMARPDMFYGDPTVAVGGHTLYHVPGIRIQLKKSRGNRRIARVVDAPHLPEGEVVFALTEEGIRDAEE
A word on the Km: it is the concentration of substrate that gives half-maximal velocity. One may read the kcat as the number of substrate molecules converted per active site and unit of time at saturation. With B2, in series [6], the Km came out at 2.3 ± 0.47 µM and the kcat amounted to 0.0283 ± 0.0015 s⁻¹.
